The results in this text go back to patent US20170260508A1 (FRED HUTCHINSON CANCER RESEARCH CENTER, published 2017).

In test [1] the target is T1, human LILRB2, wild-type full-length, on cells (human, UniProt Q8N423 22-597).
T1 construct: the assay field says which; also called WT LILRB2; full-length LILRB2
Put plainly: flow cytometry, LILRB2 on 293T cells. In general terms: A flow cytometer gives signals particle by particle.

Test [2] concerns the target T1, human LILRB2, wild-type full-length, on …. The test is described as follows: flow cytometry, human cord blood mononuclear cells, anti-FLAG-APC and anti-human LILRB2-PE. On the procedure: Flow cytometry. […] Cells were harvested at 48 h for analysis. […] Anti-LILRB2-PE was used as indicated. Cells were analyzed using either a FACSCalibur or FACSAria instrument (Becton Dickinson).

B1: Angptl5-FLAG, secreted (ligand)
chain: NCVHHSTDSSVVNIVEDGSNAKDESKSNDTVCKEDCEESCDVKTKITREEKHFMCRNLQNSIVSYTRSTKKLLRNMMDEQQASLDYLSNQVNELMNRVLLLTTEVFRKQLDPFPHRPVQSHGLDCTDIKDTIGSVTKTPSGLYIIHPEGSSYPFEVMCDMDYRGGGWTVIQKRIDGIIDFQRLWCDYLDGFGDLLGEFWLGLKKIFYIVNQKNTSFMLYVALESEDDTLAYASYDNFWLEDETRFFKMHLGRYSGNAGDAFRGLKKEDNQNAMPFSTSDVDNDGCRPACLVNGQSVKSCSHLHNKTGWWFNECGLANLNGIHHFSGKLLATGIQWGTWTKNNSPVKIKSVSMKIRRMYNPYFK
notes: read as Angptl5; not shown: FLAG tag at the C terminus
With B1, the binding result in test [1] is recorded as “binds”.

B2: fibrinogen-like domain (FBN) of Angptl2, FLAG-tagged (ligand)
chain: DKPSGPWRDCLQALEDGHDTSSIYLVKPENTNRLMQVWCDQRHDPGGWTVIQRRLDGSVNFFRNWETYKQGFGNIDGEYWLGLENIYWLTNQGNYKLLVTMEDWSGRKVFAEYASFRLEPESEYYKLRLGRYHGNAGDSFTWHNGKQFTTLDRDHDVYTGNCAHYQKGGWWYNACAHSNLNGVWYRGGHYRSRYQDGVYWAEFRGGSYSLKKVVMMIRPNPNTFH
notes: the whole Angptl2 entry is named; Migrates as a 37 kD monomer; also called FBN domain; fibrinogen domain; not shown: FLAG tag
With B2, the binding result in test [2] is “no binding”.
